# Experiment: soluble on expression in E. coli; label from the status in PepcDB or PDB records
row,Sequence,soluble on expression in E. coli
1,MNSIKNVPARVLSRRPGHSLEAEREQFDKTQAISISKAINTQEAPVKEKHARRIILGTHHEKGAFTFWSYAIGLPLPSSSILSWKFCHVLHKVLRDGHPNVLHDCQRYRSNIREIGDLWGHLHDRYGQLVNVYTKLLLTKISFHLKHPQFPAGLEVTDEVLEKAAGTDVNNIFQLTVEMFDYMDCELKLSESVFRQLNTAIAVSQMSSGQCRLAPLIQVIQDCSHLYHYTVKLLFKLHSCLPADTLQGHRDRFHEQFHSLRNFFRRASDMLYFKRLIQIPRLPEGPPNFLRASALAEHIKPVVVIPEEAPEDEEPENLIEISTGPPAGEPVVVADLFDQTFGPPNGSVKDDRDLQIESLKREVEMLRSELEKIKLEAQRYIAQLKSQVNALEGELEEQRKQKQKALVDNEQLRHELAQLRAAQLEGERSQGLREEAERKASATEARYNKLKEKHSELVHVHAELLRKNADTAKQLTVTQQSQEEVARVKEQLAFQVEQVKRESELKLEEKSDQLEKLKRELEAKAGELARAQEALSHTEQSKSELSSRLDTLSAEKDALSGAVRQREADLLAAQSLVRETEAALSREQQRSSQEQGELQGRLAERESQEQGLRQRLLDEQFAVLRGAAAEAAGILQDAVSKLDDPLHLRCTSSPDYLVSRAQEALDAVSTLEEGHAQYLTSLADASALVAALTRFSHLAADTIINGGATSHLAPTDPADRLIDTCRECGARALELMGQLQDQQALRHMQASLVRTPLQGILQLGQELKPKSLDVRQEELGAVVDKEMAATSAAIEDAVRRIEDMMNQARHASSGVKLEVNERILNSCTDLMKAIRLLVTTSTSLQKEIVESGRGAATQQEFYAKNSRWTEGLISASKAVGWGATQLVEAADKVVLHTGKYEELIVCSHEIAASTAQLVAASKVKANKHSPHLSRLQECSRTVNERAANVVASTKSGQEQIEDRDTMDFSGLSLIKLKKQEMETQVRVLELEKTLEAERMRLGELRKQHYVLAGASGSPGEEVAIRPSTAPRSVTTKKPPLAQKPSVAPRQDHQLDKKDGIYPAQLVNY,soluble
2,MNSQELLAIAVDAIDNKKGEDTISLEMKGISDMTDYFVVTHGNNERQVQAIARAVKEVANEQNIEVKRMEGYNEARWILIDLADVVVHVFHKDERNYYNIEKLYQDAPLESYSQVAYLEHHHHHH,not soluble
3,MNSSPKMKHDVFISFRSKDTRDNFVSHLCGCLRRKRIKTFLYDELPADERYEESLKAIEVSKISVIVFSENFGDSRWCLDEVVAILKCKEKFGQIVIPVLYHVDPLDIENQTGSFGDAFAKRRDKAEQLQEWKDSFTEAINLPGWSTAYLRYNPKLILSIKVTVVSELQDVLISGINIMITAFSTCK,soluble
4,MNTDTFMCSSDEKQTRSPLSLYSEYQRMEIEFRAPHIMPTSHWHGQVEVNVPFDGDVEYLINNEKVNINQGHITLFWACTPHQLTDTGTCQSMAIFNLPMHLFLSWPLDKDLINHVTHGMVIKSLATQQLSPFEVRRWQQELNSPNEQIRQLAIDEIGLMLKRFSLSGWEPILVNKTSRTHKNSVSRHAQFYVSQMLGFIAENYDQALTINDVAEHVKLNANYAMGIFQRVMQLTMKQYITAMRINHVRALLSDTDKSILDIALTAGFRSSSRFYSTFGKYVGMSPQQYRKLSQQRRQTFPG,soluble
5,MNTGAQIYRNSSSSIDKNIVDRIYKDGFLIAQYGLYMKRERDYKTFKVPVDAGFSCPNKDGTIDTRGCIFCPKMGRPISVEYCNIKYSLKDQIETQVKQNKEKGIGKFYVYFYPGTNTHGTPERLKELWDYALSFEDVIGISIGTRPDCLEDEKLDILENYVKQGYEIWIDLGIQTMHDKTLDFLNRKHSSNDIRRVLIECKKRGILVCGHIILGLPDESWNMMMETSKMLSDLEIDALKIYPLVVIENTELEEIYWKGEYKSLDEKQYIHLVSDFLEHLSPYVIIQRVSKDKVPDEIKISPEWSLRRLRILNEVSKELARRNSKQGSKYKK,not soluble
6,MNTKKEIKFIEEIKGLVPKKLGKIYTSSIIEKDSKRLTINLKKVDALPKCGLIGAPDVCVKITLTQGAKTQTKSSRVIKNTCSAVYNEAVMFLCGTSKNDLAQTSIVISVHDAQRTCTGDDTIGCAYLGIGAVDKSEIDQWKGTTEHLGKEYKGNHTLKAPITAPPVHVAEANDDVAADDDD,soluble
7,MNTMLNPHYQQIWQTVQLIPQGKVACYGQIADLAGLPGRARLVGKSLGKVPKDGWRGQRVPWFRVINSQGKISFPPGSENFDKQKHHLQDEQVVVIGSRIKLKEFQWKPDLSELLFSLEFLEHHHHHH,not soluble
8,MNTRIKPVRSFLFVPGNKESMLDKAAQAGADALILDLEDSVPSPEKTAARELVAKKIPELIAQNQRIWVRINRTAHIYDLDDILAVAPAGIEGIYISKPGGPEDVYMASCMIAEAEARANLPLGSIGLIPLLETARSMQLCYDIAQMPRVAGIVGATARNADMGRALKFVWTAEGRETEYLKSRVVMAARAAGKQAIGGLWQQIKDLDGLAKSSAFDRQLGMSGELVLHPMQVETINRTYTPTAEDVAYYQGMIEALDAAQAQGRASVMYEGEHIDIAHVKTAHEVIALAQSFGNLEHHHHHH,soluble
9,MNVDVLLKNVWLYQTVTQTFVQRNVAIKNDKFYYIYEEENVNLQPQKTINAENQWMIPGLIDAHMHIESSMTTPTIFSKAVVRYGVTTVIADAHEMANVFGLEGLKAFMAAETELDIFHAIPSSVPSTTPELETTGGIIGLAEVAELLKEPKVICLGEAMNFKGISYEPDSLIRQIIDLCQKQRPTMPLEGHCPKIEDQELADFLYSGITSDHTHQFPKTLKEKIEAGVFIQFQNKSITPENIQVIVDNDFYNYASIITDDVMADDLLKGHLNENVKKAVHAGLPIEKAIYMATYTPAKRMGLHDRGEIAPGKKADFLLLNDLESFDINTVYKSGKVVFEKGEPFHYPEKIEEFPATYQQTIQCKKLTEEDLLLKVATTKETVRCNVIQKQEIGTFTERITKEIPVENGLLQWQKANCALLIVMERYGKNGNISFSLMDQPLSEKGAIATTWAHDHHNLMVMGNTIEDILLAQNELLAMQGGYLVASDQQVMATCPLPIGGILSQAPIEQLGASLQKVRQAMQALGYQNMNEIMSFSTLSLPVSPAIKVTDFGMMDTKSQRFYPLVFPEDGVLLHENTH,not soluble
10,MNVMQENQIKLIEHIKQAVVQAVGLEETEVPEILLEVPKDKKHGDYSTNIAMQLARVAKKAPRQIAESIVPELKKDTKLIKEVEIAGPGFINFYLDNAYLTDLVPVILTEDKKYG,not soluble
11,MNVNGENNEKIDEHHLESSLAGVPTLPVSPLDHAKDLSQTNPNAQIGDLVTQTANLIAIKKQLLEDIAFNQHIQSMQVRAIQSFPQNNQVAPPFQQFDPRRRGLARMQKPESYKTVICQAWLESKTCSFADNCRFAHGEEELRPTFVEPLQNNKYKTKLCDKYTTTGLCPYGKRCLFIHPDHGPNAYIRADKLLEVSQRHALADIRDQMEQHIMTNGRIAAPPLSAIQHPLEMFARPSTPDEPAAKLPLGPTPVSTRGPRYELPTKELHDAEGAMTYPPSRWPLDPSMFALDAWNMAHRPASPLDSMVLGSAPNAGSFGMLGKQNTPGGVSGYSSAGSTPSQDLSSSSLNAASAAAAAAYFANSAVAQSLLMKSVATDPMMSCNGPFSPMPGFDQLAENMTKHLNLW,not soluble
12,MNVREPEITSVTDLTDKELTQQWKIIDWKRVKEVVNNLQSRIASAAKSGNWKTVNKLSRLLTRSFYAKLLSIRKVTTNKGSRTPGIDGIIWSSSADKMRAALQLTNKGYRAKPLTRKYIRKKSGKLRPLSIPTMYDRAMQTLHSLVLGAIESAAGDKTSFGFKPYRSTKDAYAYLHLCLSKKVSPEWIVEGDIKACFDEISHNWILDNIPIDKRILKEFLKAGYIENYHLFPTEKGTPQGGPISPIIGNMSLNGLENALAMRFYSRSDGTIDKSHQNRRKVNYVRFADDLVVTADSPETALEIIDVIQAFLDPRGLKLSEEKTLVTNISEGFNFLGWNFRKYKGKLLPKPSKDSQKEIIKKIRDVLHKAKAWDQDRLIQTLNPIIRGWAEYHNHAVSSAIFNKLDEIVYNMLISWAKRRHSNKGFTWITTKYWHKSGKRKYVFCTELQTLERFSNAKIVRQRLASLNKNPFIDKEYFEQWKFMEYHRKKRITNPNSVLNLEHHHHHH,not soluble
13,MNWAKFRETGSPEDTDMSSTPISSDTTAVSKVIDPNYVLMVADFFKAISPDESCNDFTSFDSFSVLFQNNTRALSIARGRVSCSVTVTPGISNFFKGLHGGAVASIAERVAMACVKTVVSEDKHLFIGELSMSYLSSAPISSELLVEGTVVRTGRNLSVVTVEFKIKETMKVTYLSRATFYHSPISKL,not soluble
14,MNWVTHKPTFEFDNFSPFIRANTAWLGHLEFAYDLVRFEKPEILVELGTHMGASFFSFCQGVKDGGLATKCFAVDTWTGDGHTGPYGEGVFHIVDKVVKTSYPNIGNLIKSTFDEAVDQFQDGTINLLHIDGYHTYEAVSHDYKTWLPKLADNGIVLFHDIEVKDRNFGVYKFWDEVKAKYPHFQFQHSYGLGVLFPKGCSDRFKEILKNKEEIQDMYKLEHHHHHH,soluble
15,MNYAFVVQARLGSTRLPGKILKPFYGNQSILDLMVHKLSAISNIPVIIATTNSVINEPIEKKALALGVKCFRGEENDVLKRFIDVAEYFDIQGIFRICSDNPFLDVHAARQLVEIAMKSCNDYISFDIDGTPSIKTHFGFWGEFVTLDALKRVIGFTDDLLYREHVTNYIYSHPELFNIQWISGSPVVSKHHNIRLTIDTLEDFSVAQRIYRDLQEKRVEISIEVIVDYVRRHAEYIQLMKQQIKKNSKLEHHHHHH,soluble
16,MNYHQYYPVDVVNGPGTRCSLFVAGCVHECVGCYNKSTWRLNSGQPFTQEQEDRIIADLQDKLIPRQGISLSGGDPLHPQNVPDILRLVERIRAECPGKDIWVWTGYVLADITREQQRVVDLINVLVDGKFVQDLKDPALIWRGSSNQVVHRLRLEHHHHHH,not soluble
17,MNYKITTLVENCVYGRKLQAEHGLSLYIETPENRLLFDTGASDLFIRNARLLNIDLQKVDYLVLSHGHSDHTGGLRHFLELNAEATVVCKREVFFSKFKDERENGMKYTRSLDLSRFRFIDELTELVPGVFLFPSVDIIDPKDTHFERFWIQKEDGSRVPDTFPDELAMVLVEPEGLSILSACSHRGITNILRTVRTAFPELPCNLLLGGFHIHNAEESKYQVIADYLHEYLPQKIGVCHCTGVDKYAFFYKDFGDRIFYNHTGKLIQTDSLL,not soluble
18,MNYLKTSGIVIKEVNTGEADRIITIFSKNKGKISALAKGARRPKSHLVAGTQLLCYSEFVLFKGKDMYTVNSCDVIESFYDIRNDLERLTYAAHMMDIVNDVILENQPASRLLQLFLNSLYMLSKTDRSPLQIVRVFEIRLLSTMGYAPWVSSCIKCGSTVFDSMYFSFLKCGFLCSKCLENDKGALKISEGAAKALNYIVHSKMSNLFSFEVSESVLDELGKVSQRYMKERLEKNYTKLDFIKTLDRIKC,soluble
19,MNYTKFDVKNWVRREHFEFYRHRLPCGFSLTSKIDITTLKKSLDDSAYKFYPVMIYLIAQAVNQFDELRMAIKDDELIVWDSVDPCFTVFHQETETFSALSCPYSSDIDQFMVNYLSVMERYKSDTKLFPQGVTPENHLFISALPWVNFDSFNLNVANFTDFFAPVITMAKYQQEGDRLLLPLSVQVHHAVCDGFHVARFINRLQELCNSKLK,soluble
20,MNYYGTSMWASDNNTASNSDSSLNLLGILLLASENNKLINNTVLTNLYGVNLMAESTGIGDKTGPSENILASNIISYNLGTGILFDESYGNLIYNNSFDNIWNVEDESLNTWNSSEIGNYWSDYEGEDADGDGVGDTPYLINSHTGSMDYLPVTRSSDFPELEHHHHHH,not soluble
21,MPAELLLYRSNLLGSDLTVTNFGGGNTSAKLEEMDPLTGEPVEVLWVKGSGGDIGSMKIDGFATLYQAKLLGLEAHYAGPQDDDKMVGFLPHCTFNLNCRAASIDTPLHSLLPFAHVDHVHPDAIIALAASSGGEAATKEIWGGRIGWLPWKRPGYTLGVMLRDFVKANPGVEGVMLAGHGIICWADSAKACYEHTVRLIADAAGYLNARLAEKPAFGGRLEHHHHHH,not soluble

# — the DeepSol protein solubility set
